Reference: patent publication US20030129163A1

Target: KDR/Flk-1 antibody
Assay: cell-based or functional assay

Row | Substance | # Blue Colonies (X-gal) on 1 x 10^5 KSY1 cells/well contacted with 5000 ng KDR/Flk-1 Ab, MOI = 10 (blue colonies) | # Blue Colonies (X-gal) on 5 x 10^5 KSY1 cells/well contacted with 5000 ng KDR/Flk-1 Ab, MOI = 4 (blue colonies) | # Blue Colonies (X-gal) on 5 x 10^5 KSY1 cells/well contacted with 1000 ng KDR/Flk-1 Ab, MOI = 4 (blue colonies) | # Blue Colonies (X-gal) on 1 x 10^5 KSY1 cells/well contacted with 1000 ng KDR/Flk-1 Ab, MOI = 10 (blue colonies)
1 | wild-type CAE virions (Wild Type CAE env, amphotropic) | 20 | 66 | – | –
2 | PABA.CAE retroviral vector (Protein A at BstEII and Avr + Wild Type CAE env) (from UniProt P38507 212-269) | – | 946 | 648 | –
3 | PABN.CAE retroviral vector (Protein A at BstEII and Ngo + Wild Type CAE env) (from UniProt P38507 212-269) | 2550 | – | – | 1560
